The text below walks through data of the DeepSol protein solubility set.

The nature of the data set: soluble on expression in E. coli; label from the status in PepcDB or PDB records.
As to “AIAPSDLAKKKAAKKKEAAKARGRTRKPEDGVNGDAEKPEIQENGAAEVNGVDSLAKELDEFELKKTEARAVTGVLASHPNSTDVHISSLSLTFHGQELLSDTSLELNSGRRYGLIGLNGTGKSMLLSAISHREVPIPEHIDIYHLTREMAPSEKTALQCVMEVDEERIKLEKEAERLAHEDSECEKLMELYERLEELDADKASMRASRILHGLGFTTSMQQKKLKDFSGGWRMRVALARALFLKPFMLLLDEPTNHLDLDACVWLEEELSQFKRILVLISHSQDFLNGVCTNIIHLHQRKLKYYTGNYDQYVKTREELEENQMKRFNWEQDQIAHMKNYIARFGHGSAKLARQAQSKEKTLQKMVASGLTERVVNDKTLSFYFPPCGKIPPPVIMVQNVSFRYSENTPYIYKNLEFGIDLDTRVALVGPNGAGKSTLLKLLTGELLPSDGMIRKHSHVKIGRYHQHLTEQLELDLSPLEYMMKCYPEIKEKEEMKKIIGRYGLTGKQQVSPIRNLSDGQKCRVCFAWLAWQNPHMLFLDEPTNHLDIETIDALAEAINDFEGGMMLVSHDFRLIQQVAQEIWVCEKQTITKWSRDILAYKEHLKSKIDKQMHDL”, the “soluble on expression in E. coli” value is on record as “soluble”. With “RELHPVAPLLDNLTSALNKVYQRKGVNISLDISPEISFVGEQNDFVEVMGNVLDNACKYCLEFVEISARQTDEHLYIVVEDDGPGIPLSKREVIFDRGQRVDTLRPGQGVGLAVAREITEQYEGKIVAGESMLGGARMEVIFGRQHSAPKDE”, the “soluble on expression in E. coli” value is listed as “soluble”.

“MAHHHHHHMGTLEAQTQGPGSMKLAINGFGRIGRNVFKIAFERGIDIVAINDLTDPKTLAHLLKYDSTFGVYNKKVESRDGAIVVDGREIKIIAERDPKNLPWAKLGIDVVIESTGVFSSATSDKGGYLDHVNHAGAKKVILTVPAKDEIKTIVLGVNDHDINSDLKAVSNASCTTNCLAPLAKVLHESFGIEQGLMTTVHAYTNDQRILDLPHSDLRRARAAALSIIPTSTGAAKAVGLVLPELKGKLNGTSMRVPVPTGSIVDLTVQLKKKDVTKEEINSVLRKASETPELKGILGYTEDPIVSSDIKGNSHSSIVDGLETMVLENGFAKILSWYDNEFGYSTRVVDLAQKLVK”: the “soluble on expression in E. coli” value is listed as “soluble”. On to “MGSDKIHHHHHHMISDTTIRKLVDYISLNACSVNSSGLYNGKSGISLALFETAKCLQDTEIEDKAFSLFQESLIRKTNDYGFENGMSGIGYVLIYLITNKLIDADFEDLFGDQREAIIKHFENIDKQPDKLLVSYKIIYFLFVLDKLQKQDERIYSIIEKIFQGLELYLSLQFFDWKNIYYINSKDYVLQMYEAYLKLVDFCNYKYFSKSLMDSYVTLYSEGRIASSLVRGYYLHSIITKNNMVGFNDVIRDHIRYGQKNINPAILFLDQKINLTGIIENADENRVKIQRIEMDLFEESLERIKRMVRPNCIHVGYQYGLARYLGFCANKKFPLL”, for which the “soluble on expression in E. coli” value is “not soluble”.

In the case of “MDYKVSVLIVCYNQEKYIKKALESVLSQKVNFNYEIVVCDDCSSDRTFNILQEYKSKLGSKLNLIRNYKNLGITLNYKNGFKNCKGEYIAVLEGDDYWIQKSKLKRQVSFLESNRDCSLVFNKIVLDYGDEKINNLIYPFNDIRKKFSARELVRSNFIQNFSCCMYRKSSIRKLRESIYDMVVYDWMFNMAVAQFGLIGYIPNYMTSHRILKSGLWSGKSKMENLQMISKCIDQYDSFFKYKYRKEFSQNKQEVLQALRRLVMVNENGLEHHHHHH”, the “soluble on expression in E. coli” value is on record as “soluble”. Turning to “MPANKAKYKIIKQQVKNNILSARYKIGDRLPTESDFMAEFDVSRFTIRRAIDELVNENFVRRVQGNGMYIKDWHKVNKADEDLRTIAVITTHVADYIFPNIINAIDKVISDAGYSLILANTHNDPKRERDNLLRLLKLKPSAWIIEPTQSAVNRENLDLYQQIKKLDVPAVFINSSYPGIGFPCLKTDDRGSLSELTNYLFSIGHRRIMGVFQIDDIQGVERMKGFADAYLGHPYFSDRQTTIMYKSTDDYDEIFTRITNFYKNQTVDKPDAIICYNDQLAIALIDNLKEQGWKIPEDISIIGFDDYNISRYITPTLTTLSHPKSQMGRDAGKMILNLIDNKAVKSITYYPELVLRKSVMPI”, the “soluble on expression in E. coli” value was “not soluble”. As to “MSLRSAYLSTESKIVLDVISVSDTHGWIYGHRHLPEYGDYGTLLSYIERTRQKALESEGRSVLAVDAGDLVEGTGLSDLTKVKGEKILEAASYIGFDLQTIGNHESYYKETTDYIHSKVEALFGDRYITTNVFMRDTNVPVGSGRYKYLVLPTGLRVLMLGFLFHTSPYDGVYTIPAREAIASQEITGVLEKYKYQTDLLVLACHIPTYDLEISEIVTELRAFYNQINYTIPIIIIAGHYHQIKNTYCMDGQDKQCYIVEGGCYLRFMQHVTYEFKPMTYSHEGNTYTGYQFSSVDYSLPYNEGHHHHHH”, the “soluble on expression in E. coli” value is given as “soluble”.

In the case of “MSERLESRLAKVPKVTPEDIGNWLAEAETESELTEELNANAVFYLALSFAYESIAADAARYFSYTDGEESVDKSMIFANYKKLSADALKKYRKYRRGKGTHQTFAKRADGR”, the “soluble on expression in E. coli” value is “not soluble”. For “MGSDKIHHHHHHMNYPFIYPGAIHMHTTYSDGSATFPHLIAAAREAGLRWVIVTDHDTLEGLPFAGWHDDVLVIVGHEITPDHNHFLALNVDTVISNELPPQQFIDEVYQRGGFGIIAHPDERVRNSFKDIYRWDDWTIDGPSQRTGRVVGLELWNFMSDWGEHLTERNKLALVLYPQLGLSGPTLATLAWWDRLNMVGRRTFGIGGVDAHGFKRKAPWGEIEVFPYPWIFRTLTNYLLLPEPLSSDATTATNQVYAALTAGRCYFVNRLDGDAPSIIFRLSRPGDLAEIGDTISLAGGPLLVEVDVGADAYARLIVNGEVMTSGIRRIRQTVTDDGVYRVEAYWGGKPWLFTNPIFVTAADAGREGSL” the value was “not soluble”; for “MGSDKIHHHHHHMQKHARVIYNPTSGREIIKKNLADVLSILEQAGYVTSAHATTAEPDDAKHAAEEAVRNRFDLVVAAGGDGTINEVINGIAEKEYRPKVGIIPTGTTNDFARALHVPRDVIKATKIIAAGQSVAMDIGKANETYFINIGGGGRLTELTYDVPSRLKTMLGQLAYYLKGIEMLPSLKATKVKVEYDQGVFEGEVMFFLLGLTNSIGGFEKIAPDAKLDDGKFSLIIVKKVNLAEFIRLVTLALRGDHIKEPNVIYVKSEKVIVNSEDKMLINLDGELGGETPMEFRNLRQHIEFFASVDDIPATDLFIKENS”, “not soluble”; for “MGSDKIHHHHHHMGQSSEDAAMTLQPFDGFGLGLRPPHYRAFLDSERPLVDFVEVISENFMVGGGRPLHVIDAVRERYPVALHGVSMSVGSADGVKLDYLRRLKGLADRVDPMWVSDHLCWTGVEGFNSHDLLPVPYTEEAMAVVCANIALAQDVLERPLLLENPSSYVTFANDAMAEHQFLAEMCARTGCYLLLDINNIYVSASNHGFDPYEYLAAVPVDRVLQIHLAGHSQGRELLIDTHDQPVPDSVWALYEAAAGRFGPVAAMIERDDDIPPLDDLLAELDVARARWAAGRRGSLAA”, “not soluble”. With “MKSNPAIQAAIDLTAGAAGGTACVLTGQPFDTMKVKMQTFPDLYRGLTDCCLKTYSQVGFRGFYKGTSPALIANIAENSVLFMCYGFCQQVVRKVAGLDKQAKLSDLQNAAAGSFASAFAALVLCPTELVKCRLQTMYEMETSGKIAKSQNTVWSVIKSILRKDGPLGFYHGLSSTLLREVPGYFFFFGGYELSRSFFASGRSKDELGPVPLMLSGGVGGICLWLAVYPVDCIKSRIQVLSMSGKQAGFIRTFLNVVKNEGITALYSGLKPTMIRAFPANGALFLAYEYSRKLMMNQLEAY”, the “soluble on expression in E. coli” value is “soluble”. For “MAHHHHHHSLSQVILDLQLACENHAGLPDEAQFQRWLDGVIPQFQEEAEVTIRLVDEAESHDLNLTYRGKDKPTNVLSFPFEAPPGIEMPLLGDLIICRQVVEQEAQEQSKPLEAHWAHMVVHGSLHLLGYDHIDDDEAEEMESLETEIMLAMGYEDPYIAEKIAE” the value was “soluble”. For “SLGRIKAQAFGFDQTFQSYRKDDFVMAFFKDPNVIPNLKLLSDSSGQWIILGTEVKKIEAINVPCTQLSMSFFHRLYDEDIVRDSGHIVKCLDSFCDPFLISDELRRVLLVEDSEKYEIFSQPDREEFLFCLFKHLCLGGALCQYEDVISPYLETTKLIYKDLVSVRKNPQTKKIQITSSVFKVSAYDSAGMCYPSAKNHEQTFSYFIVDPIRRHLHVLYHCYGVGDMS” the value was “soluble”; for “MSSDKFKLDTLFDDNDEIIEPDGADVKKRNVAYYYHKDVGHFHYGQLHPMKPQRLVVCNDLVVSYEMPKYMTVVESPKLDAADISVFHTEDYVNFLQTVTPKLGLTMPDDVLRQFNIGEDCPIFAGLWDYCTLYAGGSVEGARRLNHKMNDIVINWPGGLHHAKKSEASGFCYVNDIVLGILELLKYHKRVLYIDIDIHHGDGVQEAFNNSDRVMTVSFHRFGQYFPGSGSIMDKGVGPGKYFAINVPLMAAIRDEPYLKLFESVISGVEENFNPEAIVLQCGSDSLCEDRLGQFALSFNAHARAVKYVKSLGKPLMVLGGGGYTLRNVARCWALETGVILGLRMDDEIPGTSLYSHYFTPRLLRPNLVPKMNDANSAAYLASIEKETLACLRMIRGAPSVQMQNIVGIRLDEIEQIEENERLQKSSKSSIEYEVGKVSEKMEEECFVEEDSKPPSFPPGQDPRRIGQYWGYDRSGLAPPRSHSDVIEEAKYEDRDRRKDLNIPGIP”, “not soluble”; for “MHHHHHHGSMGMMSRYEELRKELPAQPKVWLITGVAGFIGSNLLETLLKLDQKVVGLDNFATGHQRNLDEVRSLVSEKQWSNFKFIQGDIRNLDDCNNACAGVDYVLHQAALGSVPRSINDPITSNATNIDGFLNMLIAARDAKVQSFTYAASSSTYGDHPGLPKVEDTIGKPLSPYAVTKYVNELYADVFSRCYGFSTIGLRYFNVFGRRQDPNGAYAAVIPKWTSSMIQGDDVYINGDGETSRDFCYIENTVQANLLAATAGLDARNQVYNIAVGGRTSLNQLFFALRDGLAENGVSYHREPVYRDFREGDVRHSLADISKAAKLLGYAPKYDVSAGVALAMPWYIMFLK”, “soluble”.

“MALSKRELDELKPWIEKTVKRVLGFSEPTVVTAALNCVGKGMDKKKAADHLKPFLDDSTLRFVDKLFEAVEEGRSSRHS”: the “soluble on expression in E. coli” value is “soluble”.

“MTGFDFSDKTVWVTGAGKGIGYATALAFVDAGARVIGFDREFTQENYPFATEVMDVADAAQVAQVCQRVLQKTTRLDVLVNAAGILRMGATDALSVDDWQQTFAVNVGGAFNLFSQTMAQFRRQQGGAIVTVASDAAHTPRIGMSAYGASKAALKSLALTVGLELAGCGVRCNVVSPGSTDTDMQRTLWVSEDAEQQRIRGFGEQFKLGIPLGKIARPQEIANTILFLASDLASHITLQDIVVDGGSTLGA”: the “soluble on expression in E. coli” value is listed as “not soluble”. For “TTNKPIVLSTWNFGLHANVEAWKVLSKGGKALDAVEKGVRLVEDDPTERSVGYGGRPDRDGRVTLDACIMDENYNIGSVACMEHIKNPISVARAVMEKTPHVMLVGDGALEFALSQGFKKENLLTAESEKEWKEWLKTSQYKPIVNIENHDCIGMIALDAQGNLSGACTTSGMAYKMHGRVGDSPIIGAGLFVDNEIGAATATGHGEEVIRTVGTHLVVELMNQGRTPQQACKEAVERIVKIVNRRGKNLKDIQVGFIALNKKGEYGAYCIQDGFNFAVHDQKGNRLETPGFALK” the value was “soluble”.

For the sequence “HDVIFHIRAKGKNQKLLLSAHPSYSRVHITAQAYENPSEPPMFCMLLRKHIEGGFIEKIEQAGLDRIMIFHIKSRNEIGDETVRKLYVEIMGRHSNIILTDAAENVIIDGLKHLSPSMNSYRTVLPGQDYKLPPAQDKISPLEASEDDILRHLSFQEGRLDKQIVDHFSGVSPLFAKEAVHRAGLANKVTLPKALLALFAEVKEHRFIPNITTVNGKEYFYLLELTHLKGEARRFDSLSELLDRFYFGKAERDRVKQQAQDLERFVVNERKKNANKIKKLEKTLEYSENAKEFQLYGELLTANLYMLKKGD”, the “soluble on expression in E. coli” value is given as “not soluble”.
